Results from publication PMC4961847 (2016).

Biological target: PD-L1 ECD (Homo sapiens, UniProt Q9NZQ7)
Test: magneto-nanosensor

Chain of PD-L1 ECD (Q9NZQ7 19-238): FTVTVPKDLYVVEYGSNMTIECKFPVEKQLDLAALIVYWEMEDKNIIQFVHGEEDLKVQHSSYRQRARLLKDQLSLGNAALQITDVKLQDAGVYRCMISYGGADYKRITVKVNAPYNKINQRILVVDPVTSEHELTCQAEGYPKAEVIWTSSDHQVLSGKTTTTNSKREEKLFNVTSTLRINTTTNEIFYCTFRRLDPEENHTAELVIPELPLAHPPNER

Kd: 9.1 µM
B1: PD-L2 ECD (protein)
chain: LFTVTVPKELYIIEHGSNVTLECNFDTGSHVNLGAITASLQKVENDTSPHRERATLLEEQLPLGKASFHIPQVQVRDEGQYQCIIIYGVAWDYKYLTLKVKASYRKINTHILKVPETDEVELTCQATGYPLAEVSWPNVSVPANTSHSRTPEGLYQVTSVLRLKPPPGRNFSCVFWNTHVRELTLASIDLQSQMEPRTHPT
